We go through two molecules from patent publication US7026456.

In the experiment the target is natural human IL-12 (p75 heterodimer), purified from stimulated human blood cultures (human) (UniProt P29459). Put plainly: cell-based or functional assay.
Sequence of UniProt P29459 (P29459 23-219, chain 1 of 2): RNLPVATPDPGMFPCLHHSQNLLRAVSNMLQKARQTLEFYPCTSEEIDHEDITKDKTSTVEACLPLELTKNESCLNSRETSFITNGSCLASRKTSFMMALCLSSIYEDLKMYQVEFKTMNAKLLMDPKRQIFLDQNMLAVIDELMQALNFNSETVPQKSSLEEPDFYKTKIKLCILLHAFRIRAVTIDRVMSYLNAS
Sequence of UniProt P29459 (P29460 23-328, chain 2 of 2, further chain): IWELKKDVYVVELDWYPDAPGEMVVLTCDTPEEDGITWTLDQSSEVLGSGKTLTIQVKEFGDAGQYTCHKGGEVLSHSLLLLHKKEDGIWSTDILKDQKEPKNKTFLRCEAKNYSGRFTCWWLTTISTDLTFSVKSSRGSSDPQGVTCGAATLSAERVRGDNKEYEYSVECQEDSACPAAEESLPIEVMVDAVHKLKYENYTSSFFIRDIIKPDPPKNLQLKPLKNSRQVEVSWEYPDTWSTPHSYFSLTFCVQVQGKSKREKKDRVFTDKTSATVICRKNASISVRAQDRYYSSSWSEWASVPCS

B1: monoclonal antibody 16G2, produced by hybridoma HIL-12F3-16G2 (ATCC HB-12449) (antibody, part only; not given: light chain and constant regions, V domains shown, part only)
VH: LEESGPSLVKPSQTLSLTCSVTGDSITSGYWNWIRKFPGNKFEYMGFISYSGSTYNNPSLKNRVSITRDTSNNQYYLQLSSVTTEDSATYYCARSSDALDYWGAGTT
Take B1: the IC50 of 0.25 ng/ml IL-12-stimulated proliferation of PHA-activated human lymphoblasts came out at 0.01 µg/mL, the IC50 of 0.25 ng/ml human IL-12-stimulated IFN-γ production by PHA-activated human lymphoblasts was 0.01 µg/mL, the inhibition of IL-12-stimulated IFN-γ production at 0.5 µg/ml antibody was > 90% and the inhibition of human IL-12 stimulated PHA activated lymphoblast proliferation is > 90%.

B2: monoclonal antibody 20E11, produced by hybridoma HIL-12F3-20E11 (ATCC HB-12448) (antibody, part only; not given: light chain and constant regions, V domains shown, part only)
VH: EESGPSLVKPSQTLSLTCSVTGDSITSGYWNWIRKFPDNTLEYMGYISYSGSTYYNPSLRSRISITRDTSKNQYSMQLNSVTTEDTATYYCARSSDAMDYWG
For the molecule B2, the IC50 of 0.25 ng/ml IL-12-stimulated proliferation of PHA-activated human lymphoblasts was found to be 0.01 µg/mL, the IC50 of 0.25 ng/ml human IL-12-stimulated IFN-γ production by PHA-activated human lymphoblasts was determined as 0.02 µg/mL, the inhibition of IL-12-stimulated IFN-γ production at 0.5 µg/ml antibody was > 90% and the inhibition of human IL-12 stimulated PHA activated lymphoblast proliferation was > 90%.
